Data: patent publication US20170157165, “APTAMER FOR FGF2 AND USE THEREOF” (RIBOMIC INC., published 2017)

B1: aptamer ID 4(3) (ssRNA)
RNA: GGAUACUAGGGCAUUAAUGUUACCAGUGUAGUCC
modifications: 2'-F at U7,G11,U15,U20,U27,U29; 2'-OH at G26,G28; all others 2'-OMe; PS between U27 and G28; 3' idT
B2: aptamer ID 4(4) (ssRNA)
RNA: B1 RNA
modifications: 2'-F at U7,G11,U15,U20,G26,U27,U29; 2'-OH at G28; all others 2'-OMe; PS between G28 and U29; 3' idT
B3: aptamer ID 5 (ssRNA)
RNA: GGGGAUACUAGGGCAUUAAUGUUACCAGUGUAGUCCCC
modifications: 2'-F at U9,U17,U22,U29,U31; 2'-OH at G13,G28,G30; all others 2'-OMe; 3' idT
B4: aptamer ID 3(2) (ssRNA)
RNA: GGGAUACUAGGGCAUUAAUGUUACCAGUGUAGUCCC
modifications: all C and U 2'-F; 2'-OMe at G1,G2,G3,A4; other purines 2'-OH
B5: aptamer ID 3(3) (ssRNA)
RNA: B4 RNA
modifications: all C and U 2'-F; 2'-OMe at G11; other purines 2'-OH
B6: aptamer ID 3(4) (ssRNA)
RNA: B4 RNA
modifications: all C and U 2'-F; 2'-OMe at G10; other purines 2'-OH
B7: aptamer ID 3(5) (ssRNA)
RNA: B4 RNA
modifications: all C and U 2'-F; 2'-OMe at A9; other purines 2'-OH
B8: aptamer ID 3(6) (ssRNA)
RNA: B4 RNA
modifications: all C and U 2'-F; 2'-OMe at A23; other purines 2'-OH
B9: aptamer ID 3(7) (ssRNA)
RNA: B4 RNA
modifications: all C and U 2'-F; 2'-OMe at A26; other purines 2'-OH
B10: aptamer ID 3(9) (ssRNA)
RNA: B4 RNA
modifications: all C and U 2'-F; 2'-OMe at A6; other purines 2'-OH
B11: aptamer ID 3(10) (ssRNA)
RNA: B4 RNA
modifications: all C and U 2'-F; 2'-OMe at G32; other purines 2'-OH
B12: aptamer ID 3(11) (ssRNA)
RNA: B4 RNA
modifications: all C and U 2'-F; 2'-OMe at A31; other purines 2'-OH
B13: aptamer ID 3(17) (ssRNA)
RNA: B4 RNA
modifications: 2'-OMe at G1,G2,G3,A4,U5,A9,G10,G11,A14,A17,A18,G20,A23,A26; other C and U 2'-F; other purines 2'-OH
B14: aptamer ID 3(20) (ssRNA)
RNA: B4 RNA
modifications: 2'-F at U8,U16,U21,U28,U30; 2'-OH at G12,G27,G29; all others 2'-OMe; 5' idT
B15: aptamer ID 3(34) (ssRNA)
RNA: B4 RNA
modifications: 2'-F at U8,G12,U16,U21,G27,U28,G29,U30; all others 2'-OMe; 3' idT
B16: aptamer ID 3(35) (ssRNA)
RNA: B4 RNA
modifications: 2'-F at U8,G12,U16,U21,G27,U28,U30; 2'-OH at G29; all others 2'-OMe; 3' idT
B17: aptamer ID 3(36) (ssRNA)
RNA: B4 RNA
modifications: 2'-F at U8,U16,U21,U28,U30; 2'-OH at G12,G27,G29; all others 2'-OMe; 5' PEG 80K (GL4-800TS)-C6; 3' idT
B18: aptamer ID 3(37) (ssRNA)
RNA: B4 RNA
modifications: 2'-F at U8,U16,U21,U28,U30; 2'-OH at G12,G27,G29; all others 2'-OMe; 5' PEG 40K (Y-NHS-40K)-ssH; 3' idT
B19: aptamer ID 3(38) (ssRNA)
RNA: B4 RNA
modifications: 2'-F at U8,U16,U21,U28,U30; 2'-OH at G12,G27,G29; all others 2'-OMe; 5' PEG 10K (ME-100TS)-C6; 3' idT
B20: aptamer ID 3(39) (ssRNA)
RNA: B4 RNA
modifications: 2'-F at U8,U16,U21,U28,U30; 2'-OH at G12,G27,G29; all others 2'-OMe; 5' PEG 10K 4-branched (PTE-100CS)-C6; 3' idT
B21: aptamer ID 3(40) (ssRNA)
RNA: B4 RNA
modifications: 2'-F at U8,U16,U21,U28,U30; 2'-OH at G12,G27,G29; all others 2'-OMe; 5' PEG 40K (GL2-400TS)-ssH; 3' idT

How the values were obtained:
FGF2 [1] = target: T1, FGF2 (Homo sapiens, UniProt P09038 P09038:135-288); test: inhibition; SPR inhibition of FGF2-FGFR1alpha(IIIc); each 0.1 uM; conditions: tags: Peprotech
Experimental: BIAcore2000 manufactured by BIAcore was used for the measurement. As directed in BIAcore Company's protocol, Protein A (21181, manufactured by PIERCE) was immobilized on a CM5 sensor chip. About 1,000 RU of human FGFR1α (IIIc), R2α (IIIc), R3 (IIIc), R4 (manufactured by R&D Systems) fused with the Fc portion of IgG (manufactured by R&D systems) was each immobilized thereon. As analyte, a mixture of FGF2 (0.1 μM), heparin (0.1 μM) (manufactured by Pfizer) and aptamer (0.15 μM) was flown. Before an inhibitory test, a mixture of FGF2 and heparin was confirmed to bind to 4 kinds of receptors. […] A sensorgram showing that the aptamer shown by aptamer ID 1 inhibits binding of FGF2 and FGFR1α(IIIc), 2α(IIIc), 3(IIIc), 4 is shown in FIG. 2.
In addition, the inhibitory rate against each of the 4 kinds of receptors was determined. The inhibitory rate was determined with the maximum binding amount of the FGF2 and heparin mixture as 0, and the binding amount with an injection buffer alone as 100. The binding amount here means the RU value of the peak top of sensorgram. The inhibitory rate was calculated. […] The inhibitory rate of other aptamers was not more than 50%.
To enhance FGF2-binding activity, stability, drug deliverability and the like, the nucleic acids shown by aptamer IDs 3(1)-3(40), aptamer IDs 4 and 4(1)-4(4), aptamer ID 5 and aptamer ID 6 were chemically synthesized based on the aptamer shown in SEQ ID NO: 3. Here, the aptamer shown by aptamer ID 4 is the aptamer shown by aptamer ID 3(19) wherein one G(M) at the 5′-terminal and one C(M) at the 3′-terminal have been deleted. The aptamer shown by aptamer ID 5 is the aptamer shown by aptamer ID 3(19) wherein one G(M) has been added at the 5′-terminal and one C(M) has been added at the 3′-terminal. The aptamer shown by aptamer ID 6 is the aptamer shown by aptamer ID 3(19) wherein A(M) alone has been added at the 5′-terminal. These nucleic acids were produced by chemical synthesis.

FGF2 [2] = target: T1, FGF2; test: cell_activity; HUVEC proliferation, FGF2 0.58 nM; conditions: tags: Peprotech
Experimental: Human umbilical vein endothelial cells (HUVEC) were seeded in a 96 well flat bottom plate at 5×10³ cells per well, and cultured overnight using a medium EGM-2 Bullet Kit for endothelial cells (CC-3162 manufactured by Lonza) containing 2% fetal bovine serum and growth factors. Thereafter, the medium was discarded, the cells were washed twice with PBS buffer, and a mixture of the aptamer shown by aptamer ID 3(21) (5, 2.5, 1, 0.5 nM) and FGF2 (final concentration 0.5 nM), dissolved in a medium exclusively for endothelial cells containing 2% fetal bovine serum, was added. After 72 hr, viable cell number was examined using Cell Counting Kit-8. For the measurement of absorbance, a microplate reader (450 nm) was used. One sample was measured at n=3. As a positive control, anti-FGF2 antibody Anti-FGF, basic (Ab-3) Mouse mAb (3H3) (manufactured by Calbiochem) were used. With the OD value per well obtained by the addition of FGF2 alone and culture of the cells for 3 days as inhibitory activity 0%, and that of the cell obtained by FGF2 free culture for 3 days as inhibitory activity 100%, the inhibitory activity of the aptamer was calculated from the OD value per well obtained by culturing with the addition of a mixture of FGF2 and the aptamer. As a result, it was shown that the aptamer shown by aptamer ID 3(21) has a high inhibitory activity against FGF2.
By a method similar to the above except that the 96 well flat bottom plate was changed to a collagen-coated one, the activity of various aptamers was evaluated. The concentration of FGF2 added was 0.58 nM. As a negative control RNA, Macugen (registered trade mark) sequence without addition of PEG, and with C6 modification of the 5′-terminal and idT modification of the 3′-terminal was used.

T1 sequence (P09038 135-288, one chain of several): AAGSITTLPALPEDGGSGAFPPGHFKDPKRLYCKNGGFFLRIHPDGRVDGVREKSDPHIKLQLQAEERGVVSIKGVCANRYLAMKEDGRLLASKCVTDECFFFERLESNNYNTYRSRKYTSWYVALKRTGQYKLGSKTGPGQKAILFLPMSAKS

Row | Binder | activity (FGF2 [1]) [%] | IC50 (FGF2 [2]) [nM]
1 | B1 | 96 | 4.6
2 | B2 | 96 | 4.5
3 | B3 | 94 | 2.6
4 | B4 | 89 | 
5 | B5 | 87 | 
6 | B6 | 89 | 
7 | B7 | 87 | 
8 | B8 | 78 | 
9 | B9 | 89 | 
10 | B10 | 89 | 
11 | B11 | 89 | 
12 | B12 | 88 | 
13 | B13 | 88 | 
14 | B14 | 96 | 
15 | B15 | 91 | 
16 | B16 | 84 | 
17 | B17 | 98 | 
18 | B18 | 97 | 
19 | B19 | 97 | 
20 | B20 | 97 | 
21 | B21 | 97 | 
